Data reported in paper PMC9482650, “Quantitative fragmentomics allow affinity mapping of interactomes” (Nature Communications, 2022).

T1: PDZRN3_1, Q9UPQ7
T1 sequence (Q9UPQ7 244-349, limits assumed, looked up): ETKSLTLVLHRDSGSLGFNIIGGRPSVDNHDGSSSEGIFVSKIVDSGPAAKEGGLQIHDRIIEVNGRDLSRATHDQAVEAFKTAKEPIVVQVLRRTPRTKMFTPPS

T2: LRRC7, Q96NW7
T2 sequence (Q96NW7 1440-1537, limits assumed, looked up): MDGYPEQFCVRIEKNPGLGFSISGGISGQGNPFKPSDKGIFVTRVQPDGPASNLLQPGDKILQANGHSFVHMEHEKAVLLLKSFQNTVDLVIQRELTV

T3: SIPA1L2, Q9P2F8
T3 sequence (Q9P2F8 945-1036, limits assumed, looked up): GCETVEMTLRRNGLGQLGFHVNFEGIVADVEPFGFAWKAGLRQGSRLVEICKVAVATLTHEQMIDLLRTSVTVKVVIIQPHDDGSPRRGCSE

T4: PDZD2_2, O15018
T4 sequence (O15018 329-429, limits assumed, looked up): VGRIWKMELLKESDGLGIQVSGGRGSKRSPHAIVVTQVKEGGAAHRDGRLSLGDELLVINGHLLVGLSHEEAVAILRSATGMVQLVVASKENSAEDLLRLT

T5: DLG3_3, Q92796
T5 sequence (Q92796 374-475, limits assumed, looked up): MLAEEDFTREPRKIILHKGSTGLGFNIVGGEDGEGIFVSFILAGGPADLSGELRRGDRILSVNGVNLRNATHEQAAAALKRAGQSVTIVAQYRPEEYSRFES

T6: LNX2_3, Q8N448
T6 sequence (Q8N448 463-564, limits assumed, looked up): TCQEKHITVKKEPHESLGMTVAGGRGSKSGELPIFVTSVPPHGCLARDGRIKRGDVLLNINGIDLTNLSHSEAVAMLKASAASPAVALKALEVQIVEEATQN

T7: NHERF3_4, Q5T2W1
T7 sequence (Q5T2W1 373-468, limits assumed, looked up): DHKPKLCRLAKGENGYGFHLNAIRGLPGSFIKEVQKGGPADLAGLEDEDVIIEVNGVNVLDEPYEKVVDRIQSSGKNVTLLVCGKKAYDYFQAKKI

T8: SHANK1, Q9Y566
T8 sequence (Q9Y566 658-767, limits assumed, looked up): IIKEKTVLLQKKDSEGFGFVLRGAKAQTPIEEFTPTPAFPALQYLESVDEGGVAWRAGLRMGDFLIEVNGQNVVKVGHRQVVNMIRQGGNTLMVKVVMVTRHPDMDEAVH

T9: APBA3_1, O96018
T9 sequence (O96018 389-490, limits assumed, looked up): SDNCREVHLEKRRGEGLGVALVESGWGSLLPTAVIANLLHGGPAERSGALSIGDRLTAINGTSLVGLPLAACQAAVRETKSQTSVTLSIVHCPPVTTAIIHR


Assays:
Assay in all cases: holdup assay
Design in all cases: key: below the threshold = too weak to quantify, mostly under pKd 3.1 to 4
Details in all cases: plain residues with an end cap or a label only (N-terminal biotin on a linker: ado-ado)
[1] = target: Inadl_1, Q8NI35
[2] = target: Inadl_4, Q8NI35
[3] = target: IL16_3, Q14005
[4] = target: DLG5_1, Q8TDM6
[5] = target: FRMPD4, Q14CM0
[6] = target: NOS1, P29475
[7] = target: NHERF4_4, Q86UT5
[8] = target: T1, PDZRN3_1, Q9UPQ7
[9] = target: Inadl_9, Q8NI35
[10] = target: T2, LRRC7, Q96NW7
[11] = target: SNX27, Q96L92
[12] = target: GIPC2, Q8TF65
[13] = target: FRMPD2_3, Q68DX3
[14] = target: T3, SIPA1L2, Q9P2F8
[15] = target: GORASP1, Q9BQQ3
[16] = target: T4, PDZD2_2, O15018
[17] = target: T5, DLG3_3, Q92796
[18] = target: T6, LNX2_3, Q8N448
[19] = target: MAGI1_2, Q96QZ7
[20] = target: T7, NHERF3_4, Q5T2W1
[21] = target: T8, SHANK1, Q9Y566
[22] = target: TJP1_3, Q07157
[23] = target: T9, APBA3_1, O96018
[24] = target: DLG4_3, P78352
[25] = target: GRID2IP_2, A4D2P6
[26] = target: LIMK2, P53671
[27] = target: Inadl_5, Q8NI35
[28] = target: LNX1_3, Q8TBB1
[29] = target: AHNAK1, Q09666
AHNAK1, Q09666, sequence (Q09666 4-100): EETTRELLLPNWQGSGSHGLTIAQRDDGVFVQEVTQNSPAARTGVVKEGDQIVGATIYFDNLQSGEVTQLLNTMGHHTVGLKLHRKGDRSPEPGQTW

Inadl_1, Q8NI35, sequence (Q8NI35 113-229): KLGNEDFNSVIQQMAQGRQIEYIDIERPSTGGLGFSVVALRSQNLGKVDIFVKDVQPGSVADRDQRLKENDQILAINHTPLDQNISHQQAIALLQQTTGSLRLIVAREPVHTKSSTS
LIMK2, P53671, sequence (P53671 143-248): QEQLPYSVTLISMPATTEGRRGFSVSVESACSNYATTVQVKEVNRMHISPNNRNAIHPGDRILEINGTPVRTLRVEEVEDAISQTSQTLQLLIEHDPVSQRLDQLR
IL16_3, Q14005, sequence (Q14005 1107-1207): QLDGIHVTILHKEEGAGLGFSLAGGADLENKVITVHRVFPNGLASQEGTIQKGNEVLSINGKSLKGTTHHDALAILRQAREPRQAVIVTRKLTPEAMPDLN
GIPC2, Q8TF65, sequence (Q8TF65 112-203): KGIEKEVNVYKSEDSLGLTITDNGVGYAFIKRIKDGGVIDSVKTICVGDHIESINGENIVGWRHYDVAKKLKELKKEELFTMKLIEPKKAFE
Inadl_9, Q8NI35, sequence (Q8NI35 1530-1615): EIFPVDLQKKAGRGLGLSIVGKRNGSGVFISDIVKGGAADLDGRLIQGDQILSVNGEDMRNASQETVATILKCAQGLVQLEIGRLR
Inadl_5, Q8NI35, sequence (Q8NI35 673-780): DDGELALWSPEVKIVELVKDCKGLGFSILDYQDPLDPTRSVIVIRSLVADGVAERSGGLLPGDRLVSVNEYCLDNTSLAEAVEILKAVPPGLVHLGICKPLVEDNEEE
GRID2IP_2, A4D2P6, sequence (A4D2P6 272-370): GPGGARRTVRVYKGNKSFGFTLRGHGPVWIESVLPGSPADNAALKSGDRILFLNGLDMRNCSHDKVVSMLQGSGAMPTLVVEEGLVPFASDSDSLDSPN
NHERF4_4, Q86UT5, sequence (Q86UT5 464-550): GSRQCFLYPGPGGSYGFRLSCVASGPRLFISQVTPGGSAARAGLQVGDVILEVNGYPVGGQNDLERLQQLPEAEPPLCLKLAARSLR
DLG4_3, P78352, sequence (P78352 306-403): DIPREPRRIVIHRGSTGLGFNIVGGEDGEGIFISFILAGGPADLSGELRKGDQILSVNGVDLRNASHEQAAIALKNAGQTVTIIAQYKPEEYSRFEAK
MAGI1_2, Q96QZ7, sequence (Q96QZ7 456-580): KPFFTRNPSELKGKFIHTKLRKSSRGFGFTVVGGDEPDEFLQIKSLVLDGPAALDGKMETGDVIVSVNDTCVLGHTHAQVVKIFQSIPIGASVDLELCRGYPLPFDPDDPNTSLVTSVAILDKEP
DLG5_1, Q8TDM6, sequence (Q8TDM6 617-713): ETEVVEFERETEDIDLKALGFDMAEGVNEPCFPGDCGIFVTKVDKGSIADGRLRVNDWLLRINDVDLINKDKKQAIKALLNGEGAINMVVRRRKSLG
FRMPD2_3, Q68DX3, sequence (Q68DX3 1073-1166): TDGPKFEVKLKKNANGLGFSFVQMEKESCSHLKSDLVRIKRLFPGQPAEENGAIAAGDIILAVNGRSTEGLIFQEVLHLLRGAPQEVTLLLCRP
LNX1_3, Q8TBB1, sequence (Q8TBB1 500-596): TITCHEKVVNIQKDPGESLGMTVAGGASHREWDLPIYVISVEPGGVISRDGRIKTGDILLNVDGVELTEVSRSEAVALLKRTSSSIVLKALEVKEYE
FRMPD4, Q14CM0, sequence (Q14CM0 67-160): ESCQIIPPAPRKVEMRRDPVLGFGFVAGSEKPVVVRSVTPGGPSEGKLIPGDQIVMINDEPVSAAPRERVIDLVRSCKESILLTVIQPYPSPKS
GORASP1, Q9BQQ3, sequence (Q9BQQ3 1-208): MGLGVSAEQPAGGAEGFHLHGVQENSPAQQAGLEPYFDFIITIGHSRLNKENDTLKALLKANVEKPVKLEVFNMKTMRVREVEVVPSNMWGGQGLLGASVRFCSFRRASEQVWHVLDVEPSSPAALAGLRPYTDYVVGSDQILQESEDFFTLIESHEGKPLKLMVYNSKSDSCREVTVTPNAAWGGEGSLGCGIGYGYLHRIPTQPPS
NOS1, P29475, sequence (P29475 9-101): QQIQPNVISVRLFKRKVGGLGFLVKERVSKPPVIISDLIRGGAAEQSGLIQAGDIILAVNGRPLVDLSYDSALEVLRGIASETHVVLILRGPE
TJP1_3, Q07157, sequence (Q07157 416-512): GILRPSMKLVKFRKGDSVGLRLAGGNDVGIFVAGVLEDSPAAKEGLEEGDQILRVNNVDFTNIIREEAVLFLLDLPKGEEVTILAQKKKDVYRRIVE
Inadl_4, Q8NI35, sequence (Q8NI35 547-651): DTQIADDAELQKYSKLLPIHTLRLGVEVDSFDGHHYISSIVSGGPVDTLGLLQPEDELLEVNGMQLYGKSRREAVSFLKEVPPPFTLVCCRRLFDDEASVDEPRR

Binder	pKd [1]	pKd [2]	pKd [3]	pKd [4]	pKd [5]	pKd [6]	pKd [7]	pKd [8]	pKd [9]	pKd [10]	pKd [11]	pKd [12]	pKd [13]	pKd [14]	pKd [15]	pKd [16]	pKd [17]	pKd [18]	pKd [19]	pKd [20]	further results
PEEGKKQSQC [GAGE12J, A6NER3]	below the threshold	below the threshold	below the threshold	below the threshold	3.48	below the threshold	below the threshold	below the threshold	below the threshold	below the threshold	below the threshold	3.62	below the threshold	below the threshold	below the threshold	4.01	below the threshold	below the threshold	below the threshold	below the threshold	pKd [21]: below the threshold; pKd [22]: below the threshold; pKd [23]: below the threshold; pKd [24]: 3.75; pKd [25]: 3.49; pKd [26]: below the threshold; pKd [27]: below the threshold; pKd [28]: below the threshold; pKd [29]: below the threshold
SSGSTSSSRI [ADGRG1, Q9Y653]	below the threshold	below the threshold	below the threshold	below the threshold	below the threshold	below the threshold	below the threshold	below the threshold	below the threshold	below the threshold	3.56	below the threshold	below the threshold	below the threshold	below the threshold	4.18	3.64	below the threshold	below the threshold	below the threshold	pKd [21]: 4.31; pKd [22]: below the threshold; pKd [23]: below the threshold; pKd [24]: below the threshold; pKd [25]: 4.02; pKd [26]: below the threshold; pKd [27]: below the threshold; pKd [28]: below the threshold; pKd [29]: below the threshold

The next lines start with results.

pKd [1]	pKd [2]	pKd [3]	pKd [4]	pKd [5]	pKd [6]	pKd [7]	pKd [8]	pKd [9]	pKd [10]	pKd [11]	pKd [12]	pKd [13]	pKd [14]	pKd [15]	pKd [16]	pKd [17]	pKd [18]	pKd [19]	pKd [20]	Binder	further results
below the threshold	below the threshold	below the threshold	below the threshold	4.84	3.52	3.99	4.47	below the threshold	below the threshold	5.22	3.49	below the threshold	below the threshold	below the threshold	3.72	below the threshold	below the threshold	below the threshold	below the threshold	NPETRDETQL [KCNT1, Q5JUK3]	pKd [21]: 4.14; pKd [22]: below the threshold; pKd [23]: below the threshold; pKd [24]: below the threshold; pKd [25]: 3.85; pKd [26]: below the threshold; pKd [27]: below the threshold; pKd [28]: below the threshold; pKd [29]: below the threshold
below the threshold	3.48	below the threshold	below the threshold	below the threshold	3.71	below the threshold	4.37	3.57	below the threshold	5.45	3.87	3.54	below the threshold	below the threshold	5.35	3.62	3.62	below the threshold	below the threshold	PDSNPEESSV [SEMA4C, Q9C0C4]	pKd [21]: below the threshold; pKd [22]: below the threshold; pKd [23]: below the threshold; pKd [24]: below the threshold; pKd [25]: 3.9; pKd [26]: below the threshold; pKd [27]: below the threshold; pKd [28]: below the threshold; pKd [29]: below the threshold
